This passage reports Kd results from paper PMC12541621.

pKd: −log10 of the molar value.

For this test, the target named is Recombinant Human HER2 ECD (human) (UniProt P04626). Briefly: SPR. (In general: SPR reads the build-up and loss of mass on a sensor chip optically.)

With ABY-025 (designed binder), the pKd was 9.97.

The pKd is −log10 of the Kd, conventionally taken in molar units.
